Reference: the supplement of paper PMC12667976

B1: library; numbered along this chain (parent)
chain: MATDAALRRLLRLHRTEIAVAVDSAFPLLHALADHDVVPEDKFQETLHLKEKEGCPQAFHALLSWLLTQDSTAILDFWRVLFKDYNLERYGRLQPILDSFPKDVDLSQPRKGRKPPAVPKALVPPPRLPTKRKASEEARAAAPAALTPRGTASPGSQLKAKPPKKPESSAEQQRLPLGNGIQTMSASVQRAVAMSSGDVPGARGAVEGILIQQVFESGGSKKCIQVGGEFYTPSKFEDSGSGKNKARSSSGPKPLVRAKGAQGAAPGGGEARLGQQGSVPAPLALPSDPQLHQKNEDECAVCRDGGELICCDGCPRAFHLACLSPPLREIPSGTWRCSSCLQATVQEVQPRAEEPRPQEPPVETPLPPGLRSAGEEVRGPPGEPLAGMDTTLVYKHLPAPPSAAPLPGLDSSALHPLLCVGPEGQQNLAPGARCGVCGDGTDVLRCTHCAAAFHWRCHFPAGTSRPGTGLRCRSCSGDVTPAPVEGVLAPSPARLAPGPAKDDTASHEPALHRDDLESLLSEHTFDGILQWAIQSMARPAAPFPS

Variants of: B1
Assay: AIRE transcriptional activation functional score (insulin promoter-GFP; nonsense median 0, synonymous median 1) (normalised score); higher = higher AIRE activity (more reporter activation)
Conditions: with insulin promoter-GFP reporter in HEK293
How it was run: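 Codon-optimized AIRE NNN-codon libraries (three regions) were integrated by Bxb1 recombinase into Flp-In T-REx HEK293 landing-pad cells carrying an insulin core promoter-GFP reporter. Integrants (mCherry+, BFP−) sorted at day 7 were expanded 7 days; top 10% GFP and unselected integrant populations were tile-sequenced. Functional score is select versus non-select variant enrichment, wild-type subtracted. Variants needed 10 counts per million in non-select; scores were rescaled to nonsense median 0 and synonymous median 1, then averaged over biological replicates.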

AIRE transcriptional activation functional score of substitutions, site by site:
A461: L 1.28; I 0.816; R 0.878; W 1.01; G 1.29; H 1.23; D 0.676; S 1.22; Q 0.964; P 1.19; Y 1.16; F 1.21; V 1.17; K 1.18; N 1.38; M 1.27; E 0.952; C 0.883; T 0.39
P466: A 0.83; F 0.774; R 0.843; H 1.46; G 1.23; V 1.06; W 1.42; S 1.08; K 0.864; T 1.12; L 1.1; D 0.553; E 0.232; I 1.21; C 1.89; N 0.444; Y 1.21; M 0.678; Q 1.02
G469: P 0.911; D 0.77; C 1.56; K 0.564; A 0.409; V 1.14; E 0.672; H 1.19; W 1.08; R 0.913; I 0.951; T 0.687; M 1.18; L 0.726; S 1.15; F 1.42; Q 0.807; N 1
P460: K 0.952; C -0.358; H 1.05; V 0.608; R 0.824; Q 0.787; Y 0.38; S 0.714; D 0.0955; N 1.07; A 1.14; F 0.995; G 0.909; L 0.827; T 0.871; E 1.16; I 1.01; M 1.17
C457: A 0.0339; R -0.0861; M -0.234; E 0.0401; F 0.264; D 0.0222; Y 0.105; I -0.23; H 0.798; Q 0.613; S -0.11; L -0.0524; V 0.0733; P 0.211; T -0.0599; G 0.0376; W 0.0502
W455: A 1.1; C 1.09; L 1.03; M 0.774; G 0.965; F 1.3; P 1.3; V 1.17; E 1.17; I 0.29; N 1.34; D 0.9; R 0.879; S 0.675; K 0.572; H 0.823; T 0.727; Q 1.09; Y 0.988
S464: C 1.18; D 0.7; N 0.563; M -0.078; F 0.807; H 1.17; R 0.955; I 1.17; A 0.955; L 1.06; W -0.451; P 1.21; G 1.27; E 1.32; K 1.18; V 0.722; Y 1.23; T 0.783
R471: F 1.09; E 0.786; A 0.351; G 0.676; C 0.215; D 0.476; H 1.03
F453: E -0.452; M 0.268; H 0.147; V 0.154; N 0.22; Q -0.136; P 0.207; L 0.17; I 0.235; K -0.248; S 0.166; T 0.101; Y 0.32; R 0.106; W 1.24; G 0.315
G462: C 0.984; D 0.731; R 1.01; S 0.982; L 0.83; N 1.34; Y 1.24; E 0.465; I 0.802; Q 1.03; P 0.607; T 0.372; M -0.0181; H 0.925; F 1.26; A 0.924; K -0.837; W 0.899; V 1.03
T468: D 1.18; M 1.12; W 1.29; G 1.08; F 1.02; Y 1.25; E 0.46; K 0.654; H 0.996; I 1.16; A 1.03; C 1.14; R 0.696; V 0.997; N 1.08; L 1.18; Q 1.22; P 0.984; S 0.945
H454: I -0.0282; P 0.129; V 0.0829; M -0.148; G 0.0883; T 0.0122; Y 0.205; N -0.0603; A -0.16; E 0.0475; C 0.499; F 0.117; Q 0.0498; S -0.00319; K 0.0788; D 0.289; W 0.31; L -0.161; R -0.0692
T463: Y 0.384; G 1.01; N 0.736; H 0.813; C 1.42; Q 0.155; A 0.614; K 0.983; S 1.01; R 0.998; W 1.05; P 1.14; V 1.49; L 1.06; D 1.54; I 0.876; M 1.51; F 0.0316
H458: S 0.164; K 0.374; A 0.981; M 0.387; T 1.16; R 0.586; V 0.655; Y 0.864; P 0.0561; I -0.227; N 0.71; E 0.661; D 1.4; G 0.842; F 0.227; C 1.02; Q 0.165; L 0.474
R456: T 1.32; W -0.304; I 1.1; S 0.726; H 1.2; C 1.3; G 1.27; K 0.0856; V -0.245; E 1.24; F -0.0642; A 1.16; Q 1.13; L 1.04; Y 1.51; N 0.016; P 1.1; D 0.851
F459: R 0.444; I 0.371; C 0.343; E 0.803; N 1.27; T 0.589; K 0.78; V 0.585; W 0.395; A 0.0803; P 0.572; D 0.929; Y 1.3; L 0.464; Q 1.14; G 0.834; H 1; S 0.591
G467: K 0.889; H 1.42; W 1.12; E 1.16; Y 0.488; A 0.947; V 1.06; P 1.04; T 0.0754; S 1.06; N 0.68; M 0.866; R 1.01; C 0.822; F 1.29; D 0.675; L 1.46; I 0.79
L470: C 0.85; N 1.06; F 0.971; D 0.572; A 1.02; Q 1.11; V 0.842; M 0.671; W 1.38; K 0.988; P 0.863; R 0.997; G 0.741; E 0.628; S 0.622; I 0.814; H 0.541; Y 0.549; T 0.558
R465: L 1.01; C 0.66; V 0.453; I 0.773; P 0.829; T -0.654; H 0.546; Y 1.39; A 0.476; Q 0.443; D 0.53; M 0.403; W 1.18; S 1.04; G 0.791; N -1.1; F 1.15
